The stoichiometry N is the number of molecules, sites or subunits per partner or assembly.

This is an account of results in publication doi:10.1101/2021.12.19.473342.

The assay concerns the target BrxR from Escherichia fergusonii ATCC 35469 plasmid pEFER (Escherichia fergusonii ATCC 35469). Briefly: SEC.

“BrxR from Escherichia fergusonii ATCC 35469 plasmid pEFER (natural protein)”: the stoichiometry N stood at 2.
